One block for each molecule: values may come before it.
How the values were obtained:
eIF4A/eIF4G_mid complex [1] = molecular target: T1, eIF4A/eIF4G_mid complex (Saccharomyces cerevisiae, UniProt P10081); test: competitive titration of the mantADP/protein complex, or ITC; format: binding; conditions: pH 7.5, 80 mM KCl, Mg2+; eIF4G_mid present
T1 sequence (P10081 1-395): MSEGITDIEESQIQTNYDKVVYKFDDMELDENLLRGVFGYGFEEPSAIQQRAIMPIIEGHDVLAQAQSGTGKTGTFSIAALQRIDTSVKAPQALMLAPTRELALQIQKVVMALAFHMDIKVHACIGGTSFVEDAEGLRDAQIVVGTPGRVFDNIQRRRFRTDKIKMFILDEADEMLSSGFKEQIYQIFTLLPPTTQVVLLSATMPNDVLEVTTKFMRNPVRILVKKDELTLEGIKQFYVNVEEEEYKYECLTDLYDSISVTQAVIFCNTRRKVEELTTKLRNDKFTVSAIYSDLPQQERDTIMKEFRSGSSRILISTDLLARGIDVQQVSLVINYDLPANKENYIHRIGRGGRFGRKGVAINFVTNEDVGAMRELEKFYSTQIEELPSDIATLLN
T1 sequence (P39935 572-853 K590R partner): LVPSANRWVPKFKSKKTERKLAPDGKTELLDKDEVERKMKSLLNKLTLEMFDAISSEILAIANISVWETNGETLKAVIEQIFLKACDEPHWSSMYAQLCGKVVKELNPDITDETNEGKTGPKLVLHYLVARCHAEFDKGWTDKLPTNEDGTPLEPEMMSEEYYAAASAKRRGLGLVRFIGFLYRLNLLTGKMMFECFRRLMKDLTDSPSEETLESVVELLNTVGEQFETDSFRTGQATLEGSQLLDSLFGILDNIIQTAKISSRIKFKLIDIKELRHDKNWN

eIF4A [2] = molecular target: T2, eIF4A (Saccharomyces cerevisiae, UniProt P10081); test: as above; format: binding; conditions: pH 7.5, 80 mM KCl, Mg2+; without eIF4G
T2 sequence (P10081 1-395): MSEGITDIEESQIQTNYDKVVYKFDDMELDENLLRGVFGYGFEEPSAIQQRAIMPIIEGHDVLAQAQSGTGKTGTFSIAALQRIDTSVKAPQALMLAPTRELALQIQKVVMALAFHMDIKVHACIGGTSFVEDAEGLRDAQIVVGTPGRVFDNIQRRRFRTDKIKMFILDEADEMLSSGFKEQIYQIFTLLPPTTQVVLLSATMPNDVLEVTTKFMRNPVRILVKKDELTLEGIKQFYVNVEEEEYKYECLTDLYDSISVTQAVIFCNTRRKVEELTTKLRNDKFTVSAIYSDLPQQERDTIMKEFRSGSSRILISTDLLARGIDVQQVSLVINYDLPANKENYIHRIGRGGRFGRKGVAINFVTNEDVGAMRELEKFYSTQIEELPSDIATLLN

eIF4A/eIF4G_mid complex [3] = molecular target: T1, eIF4A/eIF4G_mid complex; test: ITC or competitive titration; format: binding; conditions: pH 7.5, 80 mM KCl, Mg2+; eIF4G_mid present
eIF4A [4] = molecular target: T2, eIF4A; test: ITC or competitive titration; format: binding; conditions: pH 7.5, 80 mM KCl, Mg2+; without eIF4G
[5] = molecular target: eIF4G_mid (aa 572–853 of eIF4G, middle domain) (yeast) (UniProt P39935); test: ITC
[6] = molecular target: T3, eukaryotic translation initiation factor 4A (eIF4A) (yeast, UniProt P10081 1-395); test: ITC
T3 sequence (looked up): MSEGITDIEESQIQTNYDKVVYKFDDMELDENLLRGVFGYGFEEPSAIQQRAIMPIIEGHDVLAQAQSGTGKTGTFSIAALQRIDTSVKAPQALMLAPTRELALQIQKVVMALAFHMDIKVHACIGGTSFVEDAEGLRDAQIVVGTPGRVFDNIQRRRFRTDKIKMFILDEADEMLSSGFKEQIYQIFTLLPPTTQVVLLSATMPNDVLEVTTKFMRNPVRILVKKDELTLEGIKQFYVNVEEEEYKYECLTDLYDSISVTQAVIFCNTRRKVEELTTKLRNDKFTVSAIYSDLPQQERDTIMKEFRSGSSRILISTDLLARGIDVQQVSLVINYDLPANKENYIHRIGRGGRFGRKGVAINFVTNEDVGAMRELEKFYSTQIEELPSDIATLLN

eIF4A_E43R = molecular target: T4, eIF4A_E43R (yeast, UniProt P10081 1-395, E43R); test: ITC
T4 sequence (looked up): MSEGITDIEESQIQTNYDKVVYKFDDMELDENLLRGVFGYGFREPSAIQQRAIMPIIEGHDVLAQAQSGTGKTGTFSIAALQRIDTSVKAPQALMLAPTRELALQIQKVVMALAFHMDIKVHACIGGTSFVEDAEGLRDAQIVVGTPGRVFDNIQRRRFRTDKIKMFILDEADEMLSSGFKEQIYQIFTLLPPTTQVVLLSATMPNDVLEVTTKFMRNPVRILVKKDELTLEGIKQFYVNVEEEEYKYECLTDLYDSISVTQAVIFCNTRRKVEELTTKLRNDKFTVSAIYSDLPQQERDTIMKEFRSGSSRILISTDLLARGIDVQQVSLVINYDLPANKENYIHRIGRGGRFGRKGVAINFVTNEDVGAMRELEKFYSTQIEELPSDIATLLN

Molecule: Nc1ncnc2c1ncn2[C@@H]1O[C@H](COP(=O)(O)OP(=O)(O)O)[C@@H](O)[C@H]1O [ADP]
Kd (eIF4A/eIF4G_mid complex [1]): the affinity of eIF4A for ADP and ATP is moderately decreased in the presence of eIF4G
Kd (eIF4A [2]): the affinity of eIF4A for ADP and ATP is moderately decreased in the presence of eIF4G

Molecule: Nc1ncnc2c1ncn2[C@@H]1O[C@H](COP(=O)(O)OP(=O)(O)OP(=O)(O)O)[C@@H](O)[C@H]1O [ATP]
Kd (eIF4A/eIF4G_mid complex [3]): the affinity of eIF4A for ADP and ATP is moderately decreased in the presence of eIF4G
Kd (eIF4A [4]): the affinity of eIF4A for ADP and ATP is moderately decreased in the presence of eIF4G

Molecule: eIF4A-RecA_C (aa 226-406) (domain or fragment)
Kd [5]: 1300 nM

B1: eIF4G_K831E/S834D/R835E (domain or fragment, yeast, UniProt P39935 572-853, looked up)
chain: LVPSANRWVPKFKSKKTERKLAPDGKTELLDKDEVERKMKSLLNKLTLEMFDAISSEILAIANISVWETNGETLKAVIEQIFLKACDEPHWSSMYAQLCGKVVKELNPDITDETNEGKTGPKLVLHYLVARCHAEFDKGWTDKLPTNEDGTPLEPEMMSEEYYAAASAKRRGLGLVRFIGFLYRLNLLTGKMMFECFRRLMKDLTDSPSEETLESVVELLNTVGEQFETDSFRTGQATLEGSQLLDSLFGILDNIIQTAEISDEIKFKLIDIKELRHDKNWN
Kd [6]: 1100 ± 100 nM

The remaining lines, values ahead:

Kd [6]: 600 ± 100 nM
Kd (eIF4A_E43R): 200 ± 20 nM
B2: eIF4G_mid (aa 572–853 of eIF4G, middle domain) (domain or fragment, yeast, UniProt P39935 572-853, looked up)
chain: LVPSANRWVPKFKSKKTERKLAPDGKTELLDKDEVERKMKSLLNKLTLEMFDAISSEILAIANISVWETNGETLKAVIEQIFLKACDEPHWSSMYAQLCGKVVKELNPDITDETNEGKTGPKLVLHYLVARCHAEFDKGWTDKLPTNEDGTPLEPEMMSEEYYAAASAKRRGLGLVRFIGFLYRLNLLTGKMMFECFRRLMKDLTDSPSEETLESVVELLNTVGEQFETDSFRTGQATLEGSQLLDSLFGILDNIIQTAKISSRIKFKLIDIKELRHDKNWN

Kd [6]: 1000 ± 100 nM
B3: eIF4G_R835E (domain or fragment, yeast, UniProt P39935 572-853, looked up)
chain: LVPSANRWVPKFKSKKTERKLAPDGKTELLDKDEVERKMKSLLNKLTLEMFDAISSEILAIANISVWETNGETLKAVIEQIFLKACDEPHWSSMYAQLCGKVVKELNPDITDETNEGKTGPKLVLHYLVARCHAEFDKGWTDKLPTNEDGTPLEPEMMSEEYYAAASAKRRGLGLVRFIGFLYRLNLLTGKMMFECFRRLMKDLTDSPSEETLESVVELLNTVGEQFETDSFRTGQATLEGSQLLDSLFGILDNIIQTAKISSEIKFKLIDIKELRHDKNWN
